PMC12318183, “Structure reveals a regulation mechanism of plant outward-rectifying K^+ channel GORK by structural rearrangements in the CNBD–Ankyrin bridge” (Proceedings of the National Academy of Sciences of the …, 2025)

Assays:
[1] = biological target: GORK(CA-ANK)_(AKT1) chimeric channel (Arabidopsis thaliana | Arabidopsis)
[2] = biological target: the molecule itself; experiment: cryo-EM structure; single-particle cryo-EM of purified GORK at 4 mg/ml; SEC buffer 0.02% GDN, 150 mM KCl, 20 mM Tris pH 8.0, 2 mM DTT; consensus map and five maps from ANK-focused 3D classification

Sequence of CIPK23/CBL1 protein kinase complex (Q93VD3 whole entry): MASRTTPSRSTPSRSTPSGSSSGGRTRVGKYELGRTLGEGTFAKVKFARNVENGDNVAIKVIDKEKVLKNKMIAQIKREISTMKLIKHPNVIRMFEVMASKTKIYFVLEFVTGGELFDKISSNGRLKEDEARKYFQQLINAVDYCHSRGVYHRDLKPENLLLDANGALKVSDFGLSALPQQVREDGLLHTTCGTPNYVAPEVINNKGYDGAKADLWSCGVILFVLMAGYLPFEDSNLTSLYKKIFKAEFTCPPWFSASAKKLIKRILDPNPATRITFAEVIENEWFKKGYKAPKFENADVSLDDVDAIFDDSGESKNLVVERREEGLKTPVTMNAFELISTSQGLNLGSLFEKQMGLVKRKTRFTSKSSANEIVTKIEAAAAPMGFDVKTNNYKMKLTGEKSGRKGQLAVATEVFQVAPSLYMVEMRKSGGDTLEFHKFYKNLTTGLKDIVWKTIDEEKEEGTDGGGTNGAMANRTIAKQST
Sequence of CIPK23/CBL1 protein kinase complex (O81445 whole entry): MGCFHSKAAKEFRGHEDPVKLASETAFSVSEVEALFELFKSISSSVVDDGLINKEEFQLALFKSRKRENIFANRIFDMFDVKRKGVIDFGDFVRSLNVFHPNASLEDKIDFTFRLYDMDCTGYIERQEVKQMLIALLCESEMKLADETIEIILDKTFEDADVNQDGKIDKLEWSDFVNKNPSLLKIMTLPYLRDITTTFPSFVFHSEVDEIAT

outward K+ current of GORK(CA-ANK) (AKT1) in Xenopus oocytes with coexpressed CIPK23/CBL1 against without, two-electrode voltage clamp, at 70 mV [1] [fold] | Molecule | stoichiometry N [2]
3 | CIPK23/CBL1 protein kinase complex (from UniProt Q93VD3 1-482; O81445 1-213) | 
 | GUARD CELL OUTWARD-RECTIFYING K+ (GORK) channel (natural protein, Arabidopsis thaliana, GORK outward-rectifying K+ channel, Arabidopsis thaliana, UniProt Q94A76; optimised synthetic coding DNA; positions counted from the initial Met; the model covers about residues 50-720; No step that removes a tag is described; Solubilised in LMNG/CHS, kept in GDN; also called GORKWT1; GORKWT2) GRLRRRQEIIDHEEEESNDDVSSRRGKLSLAETFRWLDSSEHRRIETDGHNDYKYIIHPKNRWYKAWEMFILVWAIYSSLFTPMEFGFFRGLPERLFVLDIVGQIAFLVDIVLQFFVAYRDTQTYRTVYKPTRIAFRYLKSHFLMDFIGCFPWDLIYKASGKHELVRYLLWIRLFRVRKVVEFFQRLEKDTRINYLFTRILKLLFVEVYCTHTAACIFYYLATTLPPENEGYTWIGSLKLGDYSYENFREIDLWKRYTTALYFAIVTMATVGYGDIHAVNLREMIFVMIYVSFDMVLGAYLIGNITALIVKGSNTERFRDKMNDLISFMNRKKLGRDLRSQITGHVRLQYDSHYTDTVMLQDIPASIRAKIAQLLYLPYIKKVPLFKGCSTEFINQIVIRLHEEYFLPGEVITEQGNVVDHLYFVCEGLLEALVTKTDGSEESVTLLGPHTSFGDISIICNISQPFTVRVCELCHLLRLDKQSFSNILEIYFHDGRTILNNIMEEKESNDRIKKLESDIVIHIGKQEAELALKVNSAAFQGDFYQLKSLIRSGADPNKTDYDGRSPLHLAACRGYEDITLFLIQEGVDVNLKDKFGHTPLFEAVKAGQEGVIGLLVKEGASFNLEDSGNFLCTTVAKGDSDFLKRLLSSGMNPNSEDYDHRTPLHVAASEGLFLMAKMLVEAGASVISKDRWGNSPLDEARLCGNKKLIKLLEDVKNAQSSIYPSSLRELQEERIERRKCTVFPFHPQEAKEERSRKHGVVVWIPSNLEKLIVTAAKELGLSDGASFVLLSEDQGRITDIDMISDGHKLYMISDTTDQT | 4
